Target: His-RNMT (human, UniProt O43148 1-476)
Test: pull-down; 2 μg GST or GST-RAM with equimolar His-RNMT and glutathione sepharose; 50 mM Tris–Cl pH 7.5, 250 mM NaCl, 0.03% Brij-35, 1 mM DTT, 4°C, 1 h; Coomassie stain
Conditions: both partners purified

Chain of His-RNMT (O43148 whole entry): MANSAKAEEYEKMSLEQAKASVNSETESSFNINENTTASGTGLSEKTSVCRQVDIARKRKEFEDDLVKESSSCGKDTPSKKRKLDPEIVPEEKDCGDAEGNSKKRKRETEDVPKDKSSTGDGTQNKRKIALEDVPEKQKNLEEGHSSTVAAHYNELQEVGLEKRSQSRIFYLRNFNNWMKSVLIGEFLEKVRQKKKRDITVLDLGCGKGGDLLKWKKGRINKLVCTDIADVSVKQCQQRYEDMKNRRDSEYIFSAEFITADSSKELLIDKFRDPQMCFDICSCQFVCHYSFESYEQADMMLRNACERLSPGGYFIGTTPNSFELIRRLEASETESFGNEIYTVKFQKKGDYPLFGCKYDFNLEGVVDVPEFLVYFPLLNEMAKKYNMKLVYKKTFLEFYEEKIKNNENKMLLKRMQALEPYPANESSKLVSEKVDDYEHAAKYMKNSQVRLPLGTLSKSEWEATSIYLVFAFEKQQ

Does TDTAEAVPKFEEMFASRFTENDKEYQEYLKRPPESPPIVEEWNS (domain or fragment, human, UniProt Q9BTL3 2-45, looked up) [GST-RAM 2–45] bind?
Result: binds
